Data as given in patent publication US20090035307A1 (AbbVie / Abbott, published 2009).

What was measured:
[1] = biological target: T1, soluble amyloid precursor protein-alpha (sAPPα) (UniProt P05067-4 18-612, limits assumed); assay: dot blot on nitrocellulose, densitometry
T1 construct: Bought protein; also called sAPPα (Sigma)
Description: (§1) For detection, the corresponding antibody was used (0.2 μg/mL). Immunostaining was done using peroxidase conjugated anti-mouse-IgG and the staining reagent BM Blue POD Substrate (Roche).
1) 1 μL each of the different Aβ-standards (in their 5 serial dilutions) were dotted onto the nitrocellulose membrane in a distance of approximately 1 cm from each other. [0267] 2) The Aβ-standards dots were allowed to dry on the nitrocellulose membrane on air for at least 10 min at room temperature (RT) (=dot blot). [0268] 3) Blocking: [0269] The dot blot was incubated with 30 mL 5% low fat milk in TBS for 1.5 h at RT. [0270] 4) Washing: [0271] The blocking solution was discarded and the dot blot incubated under shaking with 20 mL TTBS for 10 min at RT. [0272] 5) Antibody solution I: [0273] The washing buffer was discarded and the dot blot incubated with antibody solution I for 2 h at RT. [0274] 6) Washing: [0275] The antibody solution I was discarded and the dot blot incubated under shaking with 20 mL TTBS for 10 min at RT. The washing solution was discarded and the dot blot incubated under shaking with 20 mL TTBS for 10 min at RT. […] Quantitative evaluation was done using a densitometric analysis (GS800 densitometer (BioRad) and software package Quantity one, Version 4.5.0 (BioRad)) of the dot-intensity. […] This threshold value was determined for every dot-blot independently.

[2] = biological target: T2, Aβ(1-42) peptide in the CSF of an Alzheimer's disease patient (human); assay: immunoprecipitation from CSF with antibody-coated Dynabeads, urea-PAGE and Western blot
T2 construct: Endogenous peptide immunoprecipitated from patient CSF; also called Aβ(1-42) peptide present in cerebrospinal fluid (CSF)
Description: Activation of Dynabeads with monoclonal mouse antibodies [0497] the stock-suspension of dynabeads (Dynabeads M-280 Sheep anti-Mouse IgG, Invitrogen; Prod. No. 112.02) was shaken carefully to prevent foaming [0498] 1 mL was aseptically removed and transferred to a 1.5 mL reaction vial [0499] the dynabeads were washed 3 times 5 min with 1 mL immunoprecipitation (IP)-wash buffer (IP-wash-buffer: PBS (20 mM NaH₂PO₄, 140 mM NaCl, pH 7.4), 0.1% (w/v) BSA) During the washing procedure the supernatant was carefully removed while the dynabeads were immobilized at the side of the reaction vial with a magnetic separator stand (MSS) [0500] the washed dynabeads were incubated with 40 μg Aβ-antibody in 1 mL PBS, 0.1% (w/v) BSA [0501] the activation was carried out by overnight incubation under shaking at 4° C. [0502] the activated dynabeads were washed 4 times 30 min (again using the MSS) with 1 mL IP-wash buffer (PBS (20 mM NaH₂PO₄, 140 mM NaCl, pH 7.4), 0.1% (w/v) BSA) [0503] the activated dynabeads were resuspended with 1 mL PBS, 0.1% (w/v) BSA, 0.02% (w/v) Na-Azide; vortexed and centrifuged briefly [0504] the antibody activated dynabeads were stored at 4° C. until further use
250 μL aliquot of the prepared CSF sample were added to 25 μL anti-Aβ-Dynabeads suspension [0507] Immunoprecipitation occurred under stirring at 6° C. for 16 hours. […]

Aβ(1-40) monomer = biological target: T3, Aβ(1-40) monomer (human); assay: dot blot, antibody 0.2 µg/mL
T3 construct: Synthetic peptide (Bachem) freshly dissolved in 0.1% NH4OH or 0.1% NaOH; both preparations were dotted; also called Aβ(1-40) monomer, 0.1% NH4OH; Aβ(1-40) monomer, 0.1% NaOH
T3 sequence (peptide, as listed by the source): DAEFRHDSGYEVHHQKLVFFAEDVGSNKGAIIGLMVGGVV
Description: as §1
(§2) 1) 1 μL each of the different Aβ-standards (in their 5 serial dilutions) were dotted onto the nitrocellulose membrane in a distance of approximately 1 cm from each other. [0267] 2) The Aβ-standards dots were allowed to dry on the nitrocellulose membrane on air for at least 10 min at room temperature (RT) (=dot blot). [0268] 3) Blocking: [0269] The dot blot was incubated with 30 mL 5% low fat milk in TBS for 1.5 h at RT. [0270] 4) Washing: [0271] The blocking solution was discarded and the dot blot incubated under shaking with 20 mL TTBS for 10 min at RT. [0272] 5) Antibody solution I: [0273] The washing buffer was discarded and the dot blot incubated with antibody solution I for 2 h at RT. [0274] 6) Washing: [0275] The antibody solution I was discarded and the dot blot incubated under shaking with 20 mL TTBS for 10 min at RT. The washing solution was discarded and the dot blot incubated under shaking with 20 mL TTBS for 10 min at RT. The washing solution was discarded and the dot blot incubated under shaking with 20 mL TBS for 10 min at RT. [0276] 7) Antibody solution II: [0277] The washing buffer was discarded and the dot blot incubated with antibody solution II overnight at RT. [0278] 8) Washing: [0279] The antibody solution II was discarded and the dot blot incubated under shaking with 20 mL TTBS for 10 min at RT. The washing solution was discarded and the dot blot incubated under shaking with 20 mL TTBS for 10 min at RT. The washing solution was discarded and the dot blot incubated under shaking with 20 mL TBS for 10 min at RT. [0280] 9) Development: [0281] The washing solution was discarded. The dot blot was developed with 10 mL BM Blue POD Substrate for 10 min. The development was stopped by intense washing of the dot blot with H₂O. Quantitative evaluation was done using a densitometric analysis (GS800 densitometer (BioRad) and software package Quantity one, Version 4.5.0 (BioRad)) of the dot-intensity. […] This threshold value was determined for every dot-blot independently.

Aβ(12-42) globulomer = biological target: T4, Aβ(12-42) globulomer (human); assay: dot blot, antibody 0.2 µg/mL
T4 peptide: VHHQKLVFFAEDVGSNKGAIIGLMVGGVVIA
Description: as §1, §2

Aβ(1-42) monomer = biological target: T5, Aβ(1-42) monomer (human); assay: dot blot, antibody 0.2 µg/mL
T5 construct: Synthetic peptide (Bachem H-1368) freshly dissolved in 0.1% NH4OH or 0.1% NaOH; both preparations were dotted; also called Aβ(1-42) monomer, 0.1% NH4OH; Aβ(1-42) monomer, 0.1% NaOH
Description: as §1, §2

Aβ(20-42) globulomer = biological target: T6, Aβ(20-42) globulomer (human); assay: dot blot, antibody 0.2 µg/mL
T6 peptide: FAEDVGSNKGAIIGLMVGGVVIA
Description: as §1, §2

Aβ(1-42) globulomer = biological target: T7, Aβ(1-42) globulomer (human); assay: dot blot, antibody 0.2 µg/mL
T7 construct: also called 38/48-kDa Aβ(1-42) globulomer; Aβ(1-42) globular oligomer
Description: as §1, §2

T1 sequence (P05067 other isoform, or with tags, fused parts or gaps limits assumed): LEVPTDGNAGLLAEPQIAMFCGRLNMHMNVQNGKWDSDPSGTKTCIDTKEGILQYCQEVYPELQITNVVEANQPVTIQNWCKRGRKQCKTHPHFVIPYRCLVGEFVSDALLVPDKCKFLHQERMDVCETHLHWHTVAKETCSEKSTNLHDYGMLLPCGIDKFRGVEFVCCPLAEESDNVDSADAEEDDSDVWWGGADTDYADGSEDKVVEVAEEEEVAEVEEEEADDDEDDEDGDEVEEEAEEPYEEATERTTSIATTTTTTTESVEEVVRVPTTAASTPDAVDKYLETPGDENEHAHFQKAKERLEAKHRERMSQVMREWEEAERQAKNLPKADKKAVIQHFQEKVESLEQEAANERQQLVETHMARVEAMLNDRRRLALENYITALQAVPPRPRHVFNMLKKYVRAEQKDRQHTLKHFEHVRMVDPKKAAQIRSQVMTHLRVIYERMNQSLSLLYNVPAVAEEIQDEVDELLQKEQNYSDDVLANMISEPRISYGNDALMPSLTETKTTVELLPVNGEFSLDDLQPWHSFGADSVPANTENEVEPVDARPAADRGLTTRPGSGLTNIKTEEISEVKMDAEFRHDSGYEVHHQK

| Binder | binding result [1] | binding result [2] | binding result (Aβ(1-40) monomer) | binding result (Aβ(12-42) globulomer) | binding result (Aβ(1-42) monomer) | binding result (Aβ(20-42) globulomer) | binding result (Aβ(1-42) globulomer) |
| --- | --- | --- | --- | --- | --- | --- | --- |
| monoclonal antibody 10F4 (antibody, V domains shown, Murine monoclonal antibody from a hybridoma (Balb/c mice immunized with Aβ(12-42) globulomer); also called mAb 10F4; ML43-10F4.3H8) VH: QVQLQQSGAELVRPGTSVRVSCKASGYAFTNYLIEWVKQRPGQGLEWIGVINPGSGDTNYNENFKGKATLTADKSSSTAYMHLSSLTSDDSAVYFCTRGVITTGFDYWGQGTTLTISS VL: DIQMTQSPASLSASVGETVTITCRASGNIHNYLAWYQQKQGKSPQLLVYNAKTLADGVPSRFSGSGSGTQYSLKINSLQPEDFGSYYCQHFWSSPRTFGGGTKLEIKR | no binding (tested: antibody 0.2 µg/mL; first dot: 1 pmol) | binds | binds | binds | binds | binds | binds |
| monoclonal antibody 3C5 (antibody, V domains shown, Murine monoclonal antibody from a hybridoma (Balb/c mice immunized with Aβ(12-42) globulomer); also called mAb 3C5; ML45-3C5.5) VH: DVQLQESGPGLVKPSQSLSLTCTVAGSSITSHYAWNWIRQFPGNKLEWMGYIDYSGSTRYLPSLKSRISITRDTSKNQFFLQLNSVTTEDTATYYCARGSGYFYGMDYWGQGTSVTVSS VL: DIQMNQSPSSLSPSLGDTITITCHASQNINVWLSWYQQKPGNIPKLLIYKASNLHTGVPSRFSGSGSGIGFTLTIRSLQPEDIATYFCQQGQSYPYTFGGGTKLEIKR | no binding (tested: antibody 0.2 µg/mL; first dot: 1 pmol) | binds | binds | binds | binds | binds | binds |
